Values belong to the binder of their own block, whether it stands above or below them.
Assays:
Details in all cases: both partners purified
[1] = target: T1, Skeletal actin, filamentous (F-actin) (rabbit, UniProt P68135 1-377); experiment: co-sedimentation; high-speed co-sedimentation (300,000 g, 30 min, 25 °C), 2 uM ABD1 with 0-125 uM F-actin, 10 mM HEPES pH 7.0, 30 mM KCl, 2 mM MgCl2, 0.5 mM EGTA; fraction depleted from the supernatant fit to a binding curve
[2] = target: T1, Skeletal actin, filamentous (F-actin); experiment: co-sedimentation; high-speed co-sedimentation (300,000 g, 30 min, 25 °C), 2 uM ABD1 with 0-125 uM F-actin, 10 mM HEPES pH 8.0, 30 mM KCl, 2 mM MgCl2, 0.5 mM EGTA; fraction depleted from the supernatant fit to a binding curve
[3] = target: T1, Skeletal actin, filamentous (F-actin); experiment: co-sedimentation; high-speed co-sedimentation (300,000 g, 30 min, 25 °C), 5 uM PLS2 with 0-100 uM F-actin, 10 mM HEPES pH 8.0, 30 mM KCl, 2 mM MgCl2, 0.5 mM EGTA; fraction of PLS2 in the pellet fit to a binding curve
[4] = target: T1, Skeletal actin, filamentous (F-actin); experiment: co-sedimentation; high-speed co-sedimentation (300,000 g, 30 min, 25 °C), 5 uM PLS2 with 0-100 uM F-actin, 10 mM HEPES pH 7.0, 30 mM KCl, 2 mM MgCl2, 0.5 mM EGTA; fraction of PLS2 in the pellet fit to a binding curve

- Kd [1]: 24.7 µM
- Kd [2]: 13.9 µM
B1: PLS2 ABD1 (a.a. 120-385) (domain or fragment)
chain: EEEKYAFVNWINKALENDPDCRHVIPMNPNTNDLFNAVGDGIVLCKMINLSVPDTIDERTINKKKLTPFTIQENLNLALNSASAIGCHVVNIGAEDLKEGKPYLVLGLLWQVIKIGLFADIELSRNEALIALLREGESLEDLMKLSPEELLLRWANYHLENAGCNKIGNFSTDIKDSKAYYHLLEQVAPKGDEEGVPAVVIDMSGLREKDDIQRAECMLQQAERLGCRQFVTATDVVRGNPKLNLAFIANLFNRYPALHKPENQDI
notes: source: E. coli BL21-CodonPlus(DE3)pLysS, purified (IMAC on cobalt resin, TEV cleavage, Superdex 200); not shown: His6, N-terminal, cleaved

- Kd [3]: 17.7 µM
- Kd [4]: 31.7 µM
B2: plastin 2 (PLS2), full-length (natural protein)
chain: MARGSVSDEEMMELREAFAKVDTDGNGYISFNELNDLFKAACLPLPGYRVREITENLMATGDLDQDGRISFDEFIKIFHGLKSTDVAKTFRKAINKKEGICAIGGTSEQSSVGTQHSYSEEEKYAFVNWINKALENDPDCRHVIPMNPNTNDLFNAVGDGIVLCKMINLSVPDTIDERTINKKKLTPFTIQENLNLALNSASAIGCHVVNIGAEDLKEGKPYLVLGLLWQVIKIGLFADIELSRNEALIALLREGESLEDLMKLSPEELLLRWANYHLENAGCNKIGNFSTDIKDSKAYYHLLEQVAPKGDEEGVPAVVIDMSGLREKDDIQRAECMLQQAERLGCRQFVTATDVVRGNPKLNLAFIANLFNRYPALHKPENQDIDWGALEGETREERTFRNWMNSLGVNPRVNHLYSDLSDALVIFQLYEKIKVPVDWNRVNKPPYPKLGGNMKKLENCNYAVELGKNQAKFSLVGIGGQDLNEGNRTLTLALIWQLMRRYTLNILEEIGGGQKVNDDIIVNWVNETLREAKKSSSISSFKDPKISTSLPVLDLIDAIQPGSINYDLLKTENLNDDEKLNNAKYAISMARKIGARVYALPEDLVEVNPKMVMTVFACLMGKGMKRV
notes: plastin 2 (PLS2, L-plastin, LCP1), human, full-length (FL) protein; Cloned in pColdI behind a 6xHis tag and TEV site; also called LCP1; L-plastin; source: E. coli BL21-CodonPlus(DE3)pLysS, purified (IMAC on cobalt resin, TEV cleavage, Superdex 200); not shown: His6, N-terminal, cleaved

— paper PMC12309418, “Human Plastins are Novel Cytoskeletal pH Sensors with a Reduced F-actin Bundling Capacity at Basic pH” (Journal of molecular biology, 2025)
